Laboratory results as given in patent EP1869192B1 (MedImmune, LLC, dated 2016).
Each block holds one molecule with its values, some of them ahead of it.

Assays:
[1] = target: Human EphA2-Fc fusion protein (human EphA2 fused with the Fc portion of a human IgG1) (human) (UniProt P29317); test: single point ELISA: 1 ug goat anti-human Fd capture, biotinylated human EphA2-Fc 300-600 ng/well, neutravidin-HRP
[2] = target: T1, Human EphA2-Fc fusion protein (human EphA2 fused with the Fc portion of a human IgG1) (human, UniProt P29317 24-534, limits assumed); test: SPR (BIAcore 3000), EphA2-Fc amine-coupled to CM5 chip (about 500 RU), IgG in solution, 25 C, KD = koff/kon
T1 construct: also called biotinylated human EphA2-Fc; not shown: Fc portion of a human IgG1
T1 sequence (P29317 24-534 limits assumed): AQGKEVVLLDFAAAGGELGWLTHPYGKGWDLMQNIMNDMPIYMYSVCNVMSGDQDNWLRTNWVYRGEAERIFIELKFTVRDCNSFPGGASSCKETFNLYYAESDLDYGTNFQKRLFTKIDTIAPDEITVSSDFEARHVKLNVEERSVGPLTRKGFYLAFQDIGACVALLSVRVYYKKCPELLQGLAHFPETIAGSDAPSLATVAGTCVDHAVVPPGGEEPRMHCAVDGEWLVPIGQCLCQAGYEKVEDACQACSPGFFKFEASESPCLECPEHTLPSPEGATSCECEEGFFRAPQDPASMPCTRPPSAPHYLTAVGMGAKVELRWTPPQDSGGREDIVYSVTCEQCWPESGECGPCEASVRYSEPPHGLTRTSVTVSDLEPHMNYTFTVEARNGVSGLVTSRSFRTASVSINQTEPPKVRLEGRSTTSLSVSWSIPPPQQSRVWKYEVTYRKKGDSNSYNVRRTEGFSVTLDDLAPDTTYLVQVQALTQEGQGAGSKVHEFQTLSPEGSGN

[3] = target: T1, Human EphA2-Fc fusion protein (human …); test: SPR (BIAcore 3000), EphA2-Fc amine-coupled to CM5 chip (about 500 RU), IgG in solution, 25 C, 1:1 Langmuir fit
[4] = target: Human EphA2-Fc fusion protein (human EphA2 fused with the Fc portion of a human IgG1) (human) (UniProt P29317); test: SPR (BIAcore), human IgG1 format on immobilized EphA2-Fc
[5] = target: Human EphA2-Fc fusion protein (human EphA2 fused with the Fc portion of a human IgG1) (human) (UniProt P29317); test: single point ELISA: periplasmic extract of 45 ml culture, 1 ug/well goat anti-human Fd capture, biotinylated EphA2-Fc
[6] = target: Human EphA2-Fc fusion protein (human EphA2 fused with the Fc portion of a human IgG1) (human) (UniProt P29317); test: single point ELISA: periplasmic Fab captured on 1 ug goat anti-human Fd, biotinylated human EphA2-Fc 300-600 ng/well, neutravidin-HRP
[7] = target: Human EphA2-Fc fusion protein (human EphA2 fused with the Fc portion of a human IgG1) (human) (UniProt P29317); test: second single point ELISA: periplasmic extract of 15 ml culture, 1 ug/well goat anti-human Fd capture, biotinylated EphA2-Fc
[8] = target: Human EphA2-Fc fusion protein (human EphA2 fused with the Fc portion of a human IgG1) (human) (UniProt P29317); test: SPR (BIAcore 3000), EphA2-Fc amine-coupled to CM5 chip (about 500 RU), IgG in solution, 25 C, KD = koff/kon
[9] = target: Human EphA2-Fc fusion protein (human EphA2 fused with the Fc portion of a human IgG1) (human) (UniProt P29317); test: SPR (BIAcore 3000), EphA2-Fc amine-coupled to CM5 chip (about 500 RU), IgG in solution, 25 C, 1:1 Langmuir fit
[10] = target: Human EphA2-Fc fusion protein (human EphA2 fused with the Fc portion of a human IgG1) (human) (UniProt P29317); test: single point ELISA: periplasmic Fab captured on 500 ng goat anti-human Fab, biotinylated human EphA2-Fc 300 ng/well, neutravidin-HRP
[11] = target: Human EphA2-Fc fusion protein (human EphA2 fused with the Fc portion of a human IgG1) (human) (UniProt P29317); test: SPR (BIAcore 3000), EphA2-Fc amine-coupled to CM5 chip, IgG in solution, 25 C, 1:1 Langmuir fit
[12] = target: Human EphA2-Fc fusion protein (human EphA2 fused with the Fc portion of a human IgG1) (human) (UniProt P29317); test: SPR (BIAcore 3000), EphA2-Fc amine-coupled to CM5 chip, IgG in solution, 25 C, KD = koff/kon

Human EphA2-Fc fusion protein (human EphA2 fused with the Fc portion of a human IgG1) (human), sequence (P29317 24-534 limits assumed): as above

B4: Fab "corrected" clone 4H5 (VH-4H5/VL-"corrected" 4H5) (Fab, from another filing, V domains shown)
VH: QVQLLESGGGLVQPGGSLRLSCAASGFTFSSYTMSWVRQAPGQALEWMGTISSGGTYTYYPDSVKGRFTISRDNAKNSLYLQMNSLRAEDTAVYYCAREAIFTYWGRGTLVTVSS
VL: DIQLTQSPSSLSASVGDRVTITCKASQDINNYLSWYQQKPGQAPRLLIYRANRLVDGVPDRFSGSGYGTDFTLTINNIESEDAAYYFCLKYDEFPYTFGQGTKVEIK
- [specific OD450/background OD450] ratio [5]: 11

B5: VH-4H5/VL-"corrected" 4H5 as human IgG1 (antibody, from another filing, V domains shown)
VH: QVQLLESGGGLVQPGGSLRLSCAASGFTFSSYTMSWVRQAPGQALEWMGTISSGGTYTYYPDSVKGRFTISRDNAKNSLYLQMNSLRAEDTAVYYCAREAIFTYWGRGTLVTVSS
VL: DIQLTQSPSSLSASVGDRVTITCKASQDINNYLSWYQQKPGQAPRLLIYRANRLVDGVPDRFSGSGYGTDFTLTINNIESEDAAYYFCLKYDEFPYTFGQGTKVEIK
- Kd [8]: 1.4 nM
- fold increase of avidity against parental mAb EA2 [4]: 4 fold
- koff [9]: 0.00105 s⁻¹
- kon [9]: 750000 M⁻¹ s⁻¹

B6: Fab clone VH-6H11/VL-8G7 (Fab, from another filing, V domains shown)
VH: EVQLVESGGGLVQPGGSLRLSCAASGFTFSDYSMNWVRQAPGKGLEWVAFIRNKANDYTTEYSASVKGRFTISRDNSKNTLYLQMNSLRAEDTAMYYCARYPRYHAMDSWGQGTLVTVSS
VL: EIVLTQSPATLSVSPGERATLSCRASQSISNNLHWYQQKPGKAPKSLIYYVFQSISGVPSRFSGSGSGTDFTLTINSLEAEDAATYYCQQSNSWPLTFGGGTKVDIK
- OD450 [10]: 2.5 OD450

B7: VH-6H11/VL-8G7 as full length human IgG1 (antibody, from another filing, V domains shown)
VH: EVQLVESGGGLVQPGGSLRLSCAASGFTFSDYSMNWVRQAPGKGLEWVAFIRNKANDYTTEYSASVKGRFTISRDNSKNTLYLQMNSLRAEDTAMYYCARYPRYHAMDSWGQGTLVTVSS
VL: EIVLTQSPATLSVSPGERATLSCRASQSISNNLHWYQQKPGKAPKSLIYYVFQSISGVPSRFSGSGSGTDFTLTINSLEAEDAATYYCQQSNSWPLTFGGGTKVDIK
- koff [11]: 0.00018 s⁻¹
- kon [11]: 96000 M⁻¹ s⁻¹
- fold decrease of avidity against parental mAb B233 [4]: 6 fold
- Kd [12]: 1.9 nM

B8: Fab clone VH-2G6/VL-12C8 (Fab, from another filing, V domains shown)
VH: EVQLVESGGGVVRPGGSLRLSCAASGFTVSDYSMNWVRQAPGKGLEWIGFIRNKANDYTTEYSASVKGRFTISRDDSKNTLYLQMNSLKTEDTAVYYCTTYPRYHAMDSWGQGTMVTVSS
VL: AIQLTQSPSSLSASVGDRVTITCRASQSISNNLHWYLQKPGQSPQLLIYYVFQSISGVPSRFSGSGSGTDFTLTISSLQPEDFATYYCQQSNSWPLTFGGGTKLEIK
- OD450 [10]: 2.8 OD450

B9: VH-2G6/VL-12C8 as full length human IgG1 (antibody, from another filing, V domains shown)
VH: EVQLVESGGGVVRPGGSLRLSCAASGFTVSDYSMNWVRQAPGKGLEWIGFIRNKANDYTTEYSASVKGRFTISRDDSKNTLYLQMNSLKTEDTAVYYCTTYPRYHAMDSWGQGTMVTVSS
VL: AIQLTQSPSSLSASVGDRVTITCRASQSISNNLHWYLQKPGQSPQLLIYYVFQSISGVPSRFSGSGSGTDFTLTISSLQPEDFATYYCQQSNSWPLTFGGGTKLEIK
- koff [11]: 0.00019 s⁻¹
- kon [11]: 64000 M⁻¹ s⁻¹
- fold decrease of avidity against parental mAb B233 [4]: 10 fold
- Kd [12]: 3 nM

Continued, values first:

- OD450 (background signal) [1]: 0.3 OD450
Molecule: irrelevant antibody (Example 2)

- Kd [2]: 5.94 nM
- koff [3]: 0.00307 s⁻¹
- kon [3]: 517000 M⁻¹ s⁻¹
B1: mAb EA2 (murine anti-human EphA2 monoclonal antibody) (antibody, V domains shown)
VH: DVKLVESGGGLVKPGGSLKLSCAASGFTFSSYTMSWVRQTPEKRLEWVATISSGGTYTYYPDSVKGRFTISRDNAKNTLYLQMSSLKSEDTAMYYCTREAIFTYWGQGTLVTVSA
VL: DIKMTQSPSSMYASLGERVTITCKASQDINNYLSWFQQKPGKSPKTLIYRANRVDGVPSRFSGSGSGQDYSLTISSLEYEDMGIYYCLKYDEFPYTFGGGTKLEIK

- fold increase of avidity against parental mAb EA2 [4]: 90 fold
B2: VH-4H5/VL-4H5 as human IgG1 (antibody, from another filing, V domains shown)
VH: QVQLLESGGGLVQPGGSLRLSCAASGFTFSSYTMSWVRQAPGQALEWMGTISSGGTYTYYPDSVKGRFTISRDNAKNSLYLQMNSLRAEDTAVYYCAREAIFTYWGRGTLVTVSS
VL: DIQLTQSPSSLSASVGDRVTITCKASQDINNYLSWYQQKPGQAPRLLIYRANRLVDGVPDRFSGSGYGTDFTLTINNIESEDAAYYFCLKYDVFPYTFGQGTKVEIK

- [specific OD450/background OD450] ratio [5]: 23
- OD450 [6]: 3 OD450
- fold signal above background of the irrelevant antibody [6]: 10 fold
- [specific OD450/background OD450] ratio [7]: 30
B3: Fab clone 4H5 (VH-4H5/VL-4H5) (Fab, from another filing, V domains shown)
VH: QVQLLESGGGLVQPGGSLRLSCAASGFTFSSYTMSWVRQAPGQALEWMGTISSGGTYTYYPDSVKGRFTISRDNAKNSLYLQMNSLRAEDTAVYYCAREAIFTYWGRGTLVTVSS
VL: DIQLTQSPSSLSASVGDRVTITCKASQDINNYLSWYQQKPGQAPRLLIYRANRLVDGVPDRFSGSGYGTDFTLTINNIESEDAAYYFCLKYDVFPYTFGQGTKVEIK
